Experimental data: US20260109758A1 (BIOSION, published 2026)
Like-named read-outs stand apart in the source and are kept apart here.

Legend:
[1] = target: T1, recombinant human TSLP-his (human, UniProt Q969D9 29-159, biotin-labeled in the ELISAs); assay: SPR Biacore; TSLP-his amine-coupled to CM5 chip, antibody as analyte; 1:1 Langmuir fit
T1 construct: In-house made; not shown: His tag at the C-terminus
Description: Un-reacted moieties on the biosensor surface were blocked with ethanolamine. Then, serially diluted purified bispecific antibodies and the controls (2-fold serial dilution in HBS-EP⁺ buffer starting at 100 nM) were respectively flowed onto the chip at a flow rate of 30 μL/min. The antigen-antibody association kinetics was followed for 4 minutes and the dissociation kinetics was followed for 13 minutes.

[2] = target: T1, recombinant human TSLP-his; assay: capture ELISA: antibody captured on anti-human IgG Fc F(ab')2, biotin human TSLP-his, SA-HRP
Description: (§1) Briefly, 96-well micro plates were coated with 100 μL 2 μg/mL AffiniPure F(ab′)₂ Fragment Goat Anti-Human IgG, Fey fragment specific (Jackson Immuno Research, Cat #109-006-008) in PBS and incubated overnight at 4° C. Plates were washed 4 times with wash buffer (PBS+0.05% Tween-20, PBST) and then blocked with 200 μL/well blocking buffer (5% w/v non-fatty milk in PBST) for 2 hours at 37° C. […] After the final wash, the plates were incubated with 100 μL/well TMB (Innoreagents). The reaction was stopped 15 minutes later at room temperature with 50 μL/well 1M H₂SO₄, and the absorbance of each well was read on a microplate reader using dual wavelength mode with 450 nm for TMB and 630 nm as the reference wavelength. The OD (450-630) values were plotted against antibody concentration. Data was analyzed using Graphpad Prism and EC₅₀ values were reported.

[3] = target: T1, recombinant human TSLP-his; assay: as above; remark: listed apart in the source
Description: as §1

Kd [1]: < 0.0157 nM | koff [1]: < 1e-05 s⁻¹ | kon [1]: 636000 M⁻¹ s⁻¹ | EC50 [2]: 0.0511 nM | EC50 [3]: 0.0487 nM
B1: hu1C5F12E9-V8(IgG1) (antibody)
heavy: QVQLVQSGAEVKKPGASVKVSCKASGYTFTTYWMHWVRQAPGQGLEWMGVIDPSDSDTTYNQKFKGRVTMTRDTSTSTVYMELSSLRSEDTAVYYCTRSLDGYYDYWGQGTLVTVSSASTKGPSVFPLAPSSKSTSGGTAALGCLVKDYFPEPVTVSWNSGALTSGVHTFPAVLQSSGLYSLSSVVTVPSSSLGTQTYICNVNHKPSNTKVDKKVEPKSCDKTHTCPPCPAPEAQGGPSVFLFPPKPKDTLYITREPEVTCVVVDVSHEDPEVKFNWYVDGVEVHNAKTKPREEQYNSTYRVVSVLTVLHQDWLNGKEYKCQVSNKALPAPIEKTISKAKGQPREPQVYTLPPSRDELTKNQVSLTCLVKGFYPSDIAVEWESNGQPENNYKTTPPVLDSDGSFFLYSKLTVDKSRWQQGNVFSCSVMHEALHNHYTQKSLSLSPG
light: DIQMTQSPSSLSASVGDRVTITCRPTENIYSYLAWYQQKPGKAPKLLIYFARTLAEGVPSRFSGSGSGTDFTLTISSLQPEDFATYYCQHHYGTPWTFGGGTKVEIKRTVAAPSVFIFPPSDEQLKSGTASVVCLLNNFYPREAKVQWKVDNALQSGNSQESVTEQDSKDSTYSLSSTLTLSKADYEKHKVYACEVTHQGLSSPVTKSFNRGEC
notes: Monospecific control, full-length IgG1; also called anti-TSLP hu1C5F12E9-V8
